Data on one molecule can be found in publication PMC4695401 (Chemistry & biology, 2015).

In the assay the target is BRD-containing DNA-PKcs fragment (aa1878-2700) (UniProt P78527 1878-2700). Nature of the assay: pull-down.

Ends that are not written are not given here. PEG = not defined here

Chain of BRD-containing DNA-PKcs fragment (aa1878-2700) (P78527 1878-2700): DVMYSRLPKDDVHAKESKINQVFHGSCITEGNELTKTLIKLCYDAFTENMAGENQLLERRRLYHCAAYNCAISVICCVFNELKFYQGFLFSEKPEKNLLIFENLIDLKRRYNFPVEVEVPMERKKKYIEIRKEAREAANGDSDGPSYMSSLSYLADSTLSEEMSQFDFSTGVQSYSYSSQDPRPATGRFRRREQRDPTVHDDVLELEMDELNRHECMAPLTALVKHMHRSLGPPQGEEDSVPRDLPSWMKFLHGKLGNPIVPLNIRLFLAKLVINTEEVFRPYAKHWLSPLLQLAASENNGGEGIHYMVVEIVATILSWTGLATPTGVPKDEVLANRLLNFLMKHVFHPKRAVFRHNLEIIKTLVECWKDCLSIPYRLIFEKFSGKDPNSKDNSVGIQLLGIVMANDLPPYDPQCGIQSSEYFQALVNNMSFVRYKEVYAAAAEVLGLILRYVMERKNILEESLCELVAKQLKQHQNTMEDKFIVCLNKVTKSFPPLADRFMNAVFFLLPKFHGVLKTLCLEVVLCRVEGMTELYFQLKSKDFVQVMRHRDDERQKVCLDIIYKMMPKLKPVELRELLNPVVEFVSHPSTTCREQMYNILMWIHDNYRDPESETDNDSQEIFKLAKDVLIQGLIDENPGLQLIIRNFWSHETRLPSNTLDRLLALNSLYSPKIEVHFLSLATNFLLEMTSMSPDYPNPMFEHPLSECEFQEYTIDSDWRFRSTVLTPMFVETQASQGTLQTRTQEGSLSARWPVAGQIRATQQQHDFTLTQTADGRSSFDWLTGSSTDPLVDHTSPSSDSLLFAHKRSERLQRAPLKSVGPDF

Regarding SGRGK(Ac)TGGKARAKAKSR-{PEG-biotin} (reading uncertain) [H2AX K5ac-containing peptide], the binding result is “binds”.
